Measurements reported in patent US20190271704.

Legend:
[1] = target: T1, NE peptide substrate with acetylated N-terminal CKKK-PEG4 linker and C-terminal pentafluoropropylamine reporter (peptide-PFC) (not fully specified)
T1 chain: CKKKXXXX

[2] = target: T2, NE peptide substrate with acetylated N-terminal CKKK-PEG4 linker and C-terminal heptafluorobutylamine reporter (peptide-PFC) (not fully specified)
T2 chain: CKKKXXXX

[3] = target: T3, NE nanosensor with heptafluorobutylamine reporter (peptide-PFC conjugated to a 40 kDa 8-arm PEG scaffold)
T3 chain: CKKKXXXX

[4] = target: T4, NE nanosensor with pentafluoropropylamine reporter (peptide-PFC conjugated to a 40 kDa 8-arm PEG scaffold)
T4 chain: CKKKXXXX

B1: neutrophil elastase (NE) (protein)
chain: IVGGRRARPHAWPFMVSLQLRGGHFCGATLIAPNFVMSAAHCVANVNVRAVRVVLGAHNLSRREPTRQVFAVQRIFENGYDPVNLLNDIVILQLNGSATINANVQVAQLPAQGRRLGNGVQCLAMGWGLLGRNRGIASVLQELNVTVVTSLCRRSNVCTLVRGRQAGVCFGDSGSPLVCNGLIHGIASFVRGGCASGLYPDAFAPVAQFVNWIDSIIQ
- PFC release from the peptide substrate (real-time vapor analysis mass spectrometry) [1]: cleaved specifically by NE
- PFC release from the peptide substrate (real-time vapor analysis mass spectrometry) [2]: cleaved specifically by NE
- kcat/Km (Michaelis-Menten kinetics of substrate cleavage) [3]: kcat/Km values were on the order of 10^5 M^-1s-^-1
- kcat/Km (Michaelis-Menten kinetics of substrate cleavage) [4]: kcat/Km values were on the order of 10^5 M^-1s-^-1
